This note sets out measurements from patent US20210322524A1 (CASE WESTERN RESERVE UNIVERSITY, published 2021).

B2: Myc-tagged ATAD3A (other, human, UniProt Q9NVI7 1-586, looked up)
chain: MSWLFGINKGPKGEGAGPPPPLPPAQPGAEGGGDRGLGDRPAPKDKWSNFDPTGLERAAKAARELEHSRYAKDALNLAQMQEQTLQLEQQSKLKEYEAAVEQLKSEQIRAQAEERRKTLSEETRQHQARAQYQDKLARQRYEDQLKQQQLLNEENLRKQEESVQKQEAMRRATVEREMELRHKNEMLRVEAEARARAKAERENADIIREQIRLKAAEHRQTVLESIRTAGTLFGEGFRAFVTDWDKVTATVAGLTLLAVGVYSAKNATLVAGRFIEARLGKPSLVRETSRITVLEALRHPIQVSRRLLSRPQDALEGVVLSPSLEARVRDIAIATRNTKKNRSLYRNILMYGPPGTGKTLFAKKLALHSGMDYAIMTGGDVAPMGREGVTAMHKLFDWANTSRRGLLLFVDEADAFLRKRATEKISEDLRATLNAFLYRTGQHSNKFMLVLASNQPEQFDWAINDRINEMVHFDLPGQEERERLVRMYFDKYVLKPATEGKQRLKLAQFDYGRKCSEVARLTEGMSGREIAQLAVSWQATAYASEDGVLTEAMMDTRVQDAVQQHQQKMCWLKAEGPGRGDEPSPS
notes: also called Myc-ATAD3A; ATAD3A-WT (heterodimer partner); not shown: Myc tag (pCMV-Myc vector)
B3: ATAD3A-Flag protein (human ATAD3A wildtype, Flag-tagged) (other, UniProt Q9NVI7 1-586, looked up)
chain: MSWLFGINKGPKGEGAGPPPPLPPAQPGAEGGGDRGLGDRPAPKDKWSNFDPTGLERAAKAARELEHSRYAKDALNLAQMQEQTLQLEQQSKLKEYEAAVEQLKSEQIRAQAEERRKTLSEETRQHQARAQYQDKLARQRYEDQLKQQQLLNEENLRKQEESVQKQEAMRRATVEREMELRHKNEMLRVEAEARARAKAERENADIIREQIRLKAAEHRQTVLESIRTAGTLFGEGFRAFVTDWDKVTATVAGLTLLAVGVYSAKNATLVAGRFIEARLGKPSLVRETSRITVLEALRHPIQVSRRLLSRPQDALEGVVLSPSLEARVRDIAIATRNTKKNRSLYRNILMYGPPGTGKTLFAKKLALHSGMDYAIMTGGDVAPMGREGVTAMHKLFDWANTSRRGLLLFVDEADAFLRKRATEKISEDLRATLNAFLYRTGQHSNKFMLVLASNQPEQFDWAINDRINEMVHFDLPGQEERERLVRMYFDKYVLKPATEGKQRLKLAQFDYGRKCSEVARLTEGMSGREIAQLAVSWQATAYASEDGVLTEAMMDTRVQDAVQQHQQKMCWLKAEGPGRGDEPSPS
notes: Made cell-free (TNT system) from pcDNA3.1(+)-ATAD3A-Flag for the in vitro assays, or expressed in HEK293 cells; the same construct is used for both here; also called ATAD3A WT; flag-tagged ATAD3A; not shown: Flag tag

Data set [1] concerns the molecule itself. The data set is described as follows: self-association; western blot under non-reducing conditions.
Data set [2] addresses T1, Drp1 (endogenous, human cells and tissue) (human, UniProt O00429 1-736, limits assumed).
T1 construct: Endogenous protein in lysates; also called Dynamin-related protein 1
The data set is described as follows: anti-Drp1 affinity purification and tandem mass spectrometry, neurons from HD patient iPS cells.

The target of data set [3] is B3. Kind of data set: co-IP.
Data set [4] concerns the molecule itself. Kind of data set: self-association; western blot with or without β-ME, HEK293 cells.
The data set “Myc-tagged ATAD3A” concerns the target B2. Kind of data set: anti-Flag IP, anti-Myc western blot.
Data set [5] addresses T1, Drp1 (endogenous, human cells and …). The data set is described as follows: IP of total lysates of transfected HEK293 cells.

T1 sequence (O00429 whole entry): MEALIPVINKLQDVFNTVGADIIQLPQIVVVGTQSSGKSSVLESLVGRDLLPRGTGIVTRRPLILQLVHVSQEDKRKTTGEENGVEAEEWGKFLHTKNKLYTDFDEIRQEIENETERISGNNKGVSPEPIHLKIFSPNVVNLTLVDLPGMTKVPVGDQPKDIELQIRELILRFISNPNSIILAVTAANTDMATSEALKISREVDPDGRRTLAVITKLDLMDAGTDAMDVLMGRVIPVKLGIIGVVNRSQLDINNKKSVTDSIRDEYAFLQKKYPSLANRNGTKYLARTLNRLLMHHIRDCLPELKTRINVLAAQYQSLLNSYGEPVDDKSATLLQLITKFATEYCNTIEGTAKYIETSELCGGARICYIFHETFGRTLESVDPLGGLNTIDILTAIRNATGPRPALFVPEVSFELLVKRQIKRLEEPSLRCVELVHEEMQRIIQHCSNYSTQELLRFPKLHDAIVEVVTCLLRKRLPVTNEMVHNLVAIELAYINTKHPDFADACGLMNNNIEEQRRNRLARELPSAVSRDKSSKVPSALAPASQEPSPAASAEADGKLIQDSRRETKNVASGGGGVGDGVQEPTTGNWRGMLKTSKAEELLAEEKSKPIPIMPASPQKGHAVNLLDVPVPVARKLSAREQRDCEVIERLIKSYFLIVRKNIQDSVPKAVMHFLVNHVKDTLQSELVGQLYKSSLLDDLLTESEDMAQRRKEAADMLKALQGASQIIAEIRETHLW

B1: ATAD3A (endogenous, human cells and tissue) (other, UniProt Q9NVI7 2-586, looked up)
chain: SWLFGINKGPKGEGAGPPPPLPPAQPGAEGGGDRGLGDRPAPKDKWSNFDPTGLERAAKAARELEHSRYAKDALNLAQMQEQTLQLEQQSKLKEYEAAVEQLKSEQIRAQAEERRKTLSEETRQHQARAQYQDKLARQRYEDQLKQQQLLNEENLRKQEESVQKQEAMRRATVEREMELRHKNEMLRVEAEARARAKAERENADIIREQIRLKAAEHRQTVLESIRTAGTLFGEGFRAFVTDWDKVTATVAGLTLLAVGVYSAKNATLVAGRFIEARLGKPSLVRETSRITVLEALRHPIQVSRRLLSRPQDALEGVVLSPSLEARVRDIAIATRNTKKNRSLYRNILMYGPPGTGKTLFAKKLALHSGMDYAIMTGGDVAPMGREGVTAMHKLFDWANTSRRGLLLFVDEADAFLRKRATEKISEDLRATLNAFLYRTGQHSNKFMLVLASNQPEQFDWAINDRINEMVHFDLPGQEERERLVRMYFDKYVLKPATEGKQRLKLAQFDYGRKCSEVARLTEGMSGREIAQLAVSWQATAYASEDGVLTEAMMDTRVQDAVQQHQQKMCWLKAEGPGRGDEPSPS
notes: Endogenous protein in lysates
Regarding B1, the binding result in data set [1] and in data set [2] was “binds” throughout.

Consider B2, for which the binding result in data set [3] was “binds”.

On to B3, for which the binding result in data set [4] was “binds”.

B4: ATAD3A K135Q (Flag-tagged) (other, human, UniProt Q9NVI7 1-586, looked up)
chain: MSWLFGINKGPKGEGAGPPPPLPPAQPGAEGGGDRGLGDRPAPKDKWSNFDPTGLERAAKAARELEHSRYAKDALNLAQMQEQTLQLEQQSKLKEYEAAVEQLKSEQIRAQAEERRKTLSEETRQHQARAQYQDQLARQRYEDQLKQQQLLNEENLRKQEESVQKQEAMRRATVEREMELRHKNEMLRVEAEARARAKAERENADIIREQIRLKAAEHRQTVLESIRTAGTLFGEGFRAFVTDWDKVTATVAGLTLLAVGVYSAKNATLVAGRFIEARLGKPSLVRETSRITVLEALRHPIQVSRRLLSRPQDALEGVVLSPSLEARVRDIAIATRNTKKNRSLYRNILMYGPPGTGKTLFAKKLALHSGMDYAIMTGGDVAPMGREGVTAMHKLFDWANTSRRGLLLFVDEADAFLRKRATEKISEDLRATLNAFLYRTGQHSNKFMLVLASNQPEQFDWAINDRINEMVHFDLPGQEERERLVRMYFDKYVLKPATEGKQRLKLAQFDYGRKCSEVARLTEGMSGREIAQLAVSWQATAYASEDGVLTEAMMDTRVQDAVQQHQQKMCWLKAEGPGRGDEPSPS
notes: Expressed in HEK293 cells; also called K135Q mutant; acetyl-mimetic ATAD3A K135Q mutant; not shown: Flag tag
On to B4, for which the binding result in the data set with Myc-tagged ATAD3A is recorded as “binds”; in data set [5], “no binding”; in data set [4], “binds”.

B5: ATAD3A K135E (Flag-tagged) (other, human, UniProt Q9NVI7 1-586, looked up)
chain: MSWLFGINKGPKGEGAGPPPPLPPAQPGAEGGGDRGLGDRPAPKDKWSNFDPTGLERAAKAARELEHSRYAKDALNLAQMQEQTLQLEQQSKLKEYEAAVEQLKSEQIRAQAEERRKTLSEETRQHQARAQYQDELARQRYEDQLKQQQLLNEENLRKQEESVQKQEAMRRATVEREMELRHKNEMLRVEAEARARAKAERENADIIREQIRLKAAEHRQTVLESIRTAGTLFGEGFRAFVTDWDKVTATVAGLTLLAVGVYSAKNATLVAGRFIEARLGKPSLVRETSRITVLEALRHPIQVSRRLLSRPQDALEGVVLSPSLEARVRDIAIATRNTKKNRSLYRNILMYGPPGTGKTLFAKKLALHSGMDYAIMTGGDVAPMGREGVTAMHKLFDWANTSRRGLLLFVDEADAFLRKRATEKISEDLRATLNAFLYRTGQHSNKFMLVLASNQPEQFDWAINDRINEMVHFDLPGQEERERLVRMYFDKYVLKPATEGKQRLKLAQFDYGRKCSEVARLTEGMSGREIAQLAVSWQATAYASEDGVLTEAMMDTRVQDAVQQHQQKMCWLKAEGPGRGDEPSPS
notes: Expressed in HEK293 cells; also called K135E mutant; acetyl-deficient mutant K135E; not shown: Flag tag
Take B5: the binding result (in the data set with Myc-tagged ATAD3A; in data set [5]; in data set [4]) was “binds” in each case.

B6: ATAD3A K135R (Flag-tagged) (other, human, UniProt Q9NVI7 1-586, looked up)
chain: MSWLFGINKGPKGEGAGPPPPLPPAQPGAEGGGDRGLGDRPAPKDKWSNFDPTGLERAAKAARELEHSRYAKDALNLAQMQEQTLQLEQQSKLKEYEAAVEQLKSEQIRAQAEERRKTLSEETRQHQARAQYQDRLARQRYEDQLKQQQLLNEENLRKQEESVQKQEAMRRATVEREMELRHKNEMLRVEAEARARAKAERENADIIREQIRLKAAEHRQTVLESIRTAGTLFGEGFRAFVTDWDKVTATVAGLTLLAVGVYSAKNATLVAGRFIEARLGKPSLVRETSRITVLEALRHPIQVSRRLLSRPQDALEGVVLSPSLEARVRDIAIATRNTKKNRSLYRNILMYGPPGTGKTLFAKKLALHSGMDYAIMTGGDVAPMGREGVTAMHKLFDWANTSRRGLLLFVDEADAFLRKRATEKISEDLRATLNAFLYRTGQHSNKFMLVLASNQPEQFDWAINDRINEMVHFDLPGQEERERLVRMYFDKYVLKPATEGKQRLKLAQFDYGRKCSEVARLTEGMSGREIAQLAVSWQATAYASEDGVLTEAMMDTRVQDAVQQHQQKMCWLKAEGPGRGDEPSPS
notes: Expressed in HEK293 cells; also called K135R mutant; acetyl-deficient mutant K135R; not shown: Flag tag
On to B6, for which the binding result in data set [5] and in data set [4] was “binds” each time.

B7: ATAD3A (endogenous, mouse cells and mouse striatum) (other, UniProt Q925I1 2-591, looked up)
chain: SWLFGIKGPKGEGTGPPLPLPPAQPGAEGGGDRGAGDRPSPKDKWSNFDPTGLERAAKAARELEHSRHAKEALSLAQMQEQTLQLEQQSKLKEYEAAVEQLKSEQIRVQAEERRKTLTEETRQHQARAQYQDKLARQRYEDQLKQQQLLNEENLRKQEESVQKQEAIRRATVEREMELRHKNEMLRVEAEARARAKADRENADIIREQIRLKAAEHRQTILESIRTAGTLLGEGFRAFVTDWDKVTATVAGLTLLAVGVYSAKNATSVAGRYIEARLGKPSLVRETSRISVLEALRHPIQVSRRLVSRPQDALEGVILSPSLEARVRDIAIATRNTKKNKSLYRNVLMYGPPGTGKTLFAKKLALHSGMDYAIMTGGDVAPMGREGVTAMHKVFDWASTSRRGLLLFVDEADAFLRKRATEKISEDLRATLNAFLHRTGQHSSKFMLVLASNQPEQFDWAINDRIDEMVCFALPQREERERLVRMYFDKYVLKPATEGKQRLKVAQFDYGKKCSEVAQLTEGMSGREIAQLAVAWQAMAYSSEDGVLTEAMMDARVQDAVQQHQQKMQWLKVERPDSQTNKPPHPSLLSC
notes: Endogenous protein in lysates; also called endogenous ATAD3A
For the molecule B7, in data set [1], the binding result is listed as “binds”.
